{"source": "paper PMC10769878", "about": "(2024)", "binders": {"B1": {"name": "MazF (enzyme)", "chain": "MIVKRGDVYFADLSPVVGSEQGGVRPVLVIQNDIGNRFSPTAIVAAIAAQIQKAKLPTHVEIDAKRYGFERDSVILLEQIRTIDKQRLTDKITHLDDEMMDKVDEALQISLALIDF"}}, "test_in_all_cases": "BLI", "key": {"[1]": {"target": "B1"}, "[2]": {"target": "T1, phi3T_93 (Bacillus subtilis phage phi3T)", "T1 chain": "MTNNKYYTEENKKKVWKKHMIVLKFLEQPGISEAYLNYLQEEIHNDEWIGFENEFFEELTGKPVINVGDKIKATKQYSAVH"}, "[3]": {"target": "B1"}, "[4]": {"target": "T1, phi3T_93"}, "[5]": {"target": "T2, YosL^phi3T (Bacillus subtilis phage phi3T)", "T2 chain": "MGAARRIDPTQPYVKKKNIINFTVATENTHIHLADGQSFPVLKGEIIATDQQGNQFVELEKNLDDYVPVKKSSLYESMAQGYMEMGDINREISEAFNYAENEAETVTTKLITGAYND"}, "[6]": {"target": "T3, YosL^SPβ (Bacillus subtilis phage SPβ, UniProt O31877 1-117)", "T3 chain": "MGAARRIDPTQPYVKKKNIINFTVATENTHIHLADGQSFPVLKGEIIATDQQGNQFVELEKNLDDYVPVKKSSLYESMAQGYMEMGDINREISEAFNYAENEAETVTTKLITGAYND"}, "[7]": {"target": "T2, YosL^phi3T"}, "[8]": {"target": "T3, YosL^SPβ"}}}
{"binder": "MazE (natural protein) MSESSARTEMKISLPENLVAELDGVAMREKRSRNELISQAVRAYVSERTTRHNRDLMRRGYMEMAKINLNISSEAHFAECEAETTVERLVSGG", "values": [{"measurement": "koff", "setting": "[1]", "value": 0.01, "unit": "s⁻¹"}, {"measurement": "koff", "setting": "[2]", "value": 0.0013, "unit": "s⁻¹"}, {"measurement": "Kd", "setting": "[3]", "value": 404, "unit": "nM"}, {"measurement": "Kd", "setting": "[4]", "value": 27.3, "unit": "nM"}]}
{"binder": "B1", "values": [{"measurement": "koff", "setting": "[5]", "value": 0.00033, "unit": "s⁻¹"}, {"measurement": "koff", "setting": "[6]", "value": 0.00085, "unit": "s⁻¹"}, {"measurement": "Kd", "setting": "[7]", "value": 20.2, "unit": "nM"}, {"measurement": "Kd", "setting": "[8]", "value": 15, "unit": "nM"}]}
{"binder": "AimX (natural protein) MKRALGKAISYEEMAKGYEEMAAINSIIAQEDNHLENEAEMIKTRYKTLAS", "values": [{"measurement": "koff", "setting": "[1]", "value": 0.0066, "unit": "s⁻¹"}, {"measurement": "koff", "setting": "[2]", "value": 0.045, "unit": "s⁻¹"}, {"measurement": "Kd", "setting": "[3]", "value": 81.3, "unit": "nM"}, {"measurement": "Kd", "setting": "[4]", "value": 184, "unit": "nM"}]}
